{"source": "patent US20180155451A1", "about": "(published 2018)", "binders": {"B1": {"name": "GpH7-B3 variant Y300_19Q/GpL16-k0 (antibody, human IgG1, kappa)", "heavy": "not shown", "light": "DIVMTQSPLSLPVTPGEPASISCQASESLVHSNRNTYLHWYLQKPGQSPQLLIYKVSNRFSGVPDRFSGSGSGTDFTLKISRVEAEDVGVYYCSQNTHVPPTFGQGTKVEIERTVAAPSVFIFPPSDEQLKSGTASVVCLLNNFYPREAKVQWKVDNALQSGNSQESVTEQDSKDSTYSLSSTLTLSKADYEKHKVYACEVTHQGLSSPVTKSFNRGEC", "notes": "homodimerized IgG1; mutation in both H chains; also called Ho Ab"}, "B2": {"name": "GpH7-B3 variant Y300_20W/GpL16-k0 (antibody, human IgG1, kappa)", "heavy": "not shown", "light": "B1 light", "notes": "as for B1"}, "B3": {"name": "GpH7-A5/GpH7-B3 variant Y300_01G/GpL16-k0 (antibody, human IgG1, kappa)", "heavy 1": "not shown", "heavy 2": "not shown", "light": "B1 light", "notes": "heterodimerized IgG1; mutation in one H chain only; also called He Ab"}, "B4": {"name": "GpH7-A5/GpH7-B3 variant T335_16H/GpL16-k0 (antibody, human IgG1, kappa)", "heavy 1": "not shown", "heavy 2": "not shown", "light": "B1 light", "notes": "as for B3"}, "B5": {"name": "GpH7-A5/GpH7-B3 variant T335_18N/GpL16-k0 (antibody, human IgG1, kappa)", "heavy 1": "not shown", "heavy 2": "not shown", "light": "B1 light", "notes": "as for B3"}, "B6": {"name": "GpH7-A5/GpH7-B3 variant T335_19Q/GpL16-k0 (antibody, human IgG1, kappa)", "heavy 1": "not shown", "heavy 2": "not shown", "light": "B1 light", "notes": "as for B3"}, "B7": {"name": "GpH7-A5/GpH7-B3 variant T335_20W/GpL16-k0 (antibody, human IgG1, kappa)", "heavy 1": "not shown", "heavy 2": "not shown", "light": "B1 light", "notes": "as for B3"}, "B8": {"name": "GpH7-A5/GpH7-B3 variant Y296_06M/GpL16-k0 (antibody, human IgG1, kappa)", "heavy 1": "not shown", "heavy 2": "not shown", "light": "B1 light", "notes": "as for B3"}, "B9": {"name": "GpH7-A5/GpH7-B3 variant Y296_10E/GpL16-k0 (antibody, human IgG1, kappa)", "heavy 1": "not shown", "heavy 2": "not shown", "light": "B1 light", "notes": "as for B3"}, "B10": {"name": "GpH7-A5/GpH7-B3 variant Y296_11K/GpL16-k0 (antibody, human IgG1, kappa)", "heavy 1": "not shown", "heavy 2": "not shown", "light": "B1 light", "notes": "as for B3"}, "B11": {"name": "GpH7-A5/GpH7-B3 variant Y296_12R/GpL16-k0 (antibody, human IgG1, kappa)", "heavy 1": "not shown", "heavy 2": "not shown", "light": "B1 light", "notes": "as for B3"}, "B12": {"name": "GpH7-A5/GpH7-B3 variant Y296_13S/GpL16-k0 (antibody, human IgG1, kappa)", "heavy 1": "not shown", "heavy 2": "not shown", "light": "B1 light", "notes": "as for B3"}, "B13": {"name": "GpH7-A5/GpH7-B3 variant Y296_14T/GpL16-k0 (antibody, human IgG1, kappa)", "heavy 1": "not shown", "heavy 2": "not shown", "light": "B1 light", "notes": "as for B3"}, "B14": {"name": "GpH7-A5/GpH7-B3 variant Y296_16H/GpL16-k0 (antibody, human IgG1, kappa)", "heavy 1": "not shown", "heavy 2": "not shown", "light": "B1 light", "notes": "as for B3"}, "B15": {"name": "GpH7-A5/GpH7-B3 variant Y296_18N/GpL16-k0 (antibody, human IgG1, kappa)", "heavy 1": "not shown", "heavy 2": "not shown", "light": "B1 light", "notes": "as for B3"}, "B16": {"name": "GpH7-A5/GpH7-B3 variant Y296_19Q/GpL16-k0 (antibody, human IgG1, kappa)", "heavy 1": "not shown", "heavy 2": "not shown", "light": "B1 light", "notes": "as for B3"}, "B17": {"name": "GpH7-A5/GpH7-B3 variant Y296_20W/GpL16-k0 (antibody, human IgG1, kappa)", "heavy 1": "not shown", "heavy 2": "not shown", "light": "B1 light", "notes": "as for B3"}, "B18": {"name": "GpH7-A5/GpH7-B3 variant Y300_02A/GpL16-k0 (antibody, human IgG1, kappa)", "heavy 1": "not shown", "heavy 2": "not shown", "light": "B1 light", "notes": "as for B3"}, "B19": {"name": "GpH7-A5/GpH7-B3 variant Y300_03V/GpL16-k0 (antibody, human IgG1, kappa)", "heavy 1": "not shown", "heavy 2": "not shown", "light": "B1 light", "notes": "as for B3"}, "B20": {"name": "GpH7-A5/GpH7-B3 variant Y300_06M/GpL16-k0 (antibody, human IgG1, kappa)", "heavy 1": "not shown", "heavy 2": "not shown", "light": "B1 light", "notes": "as for B3"}, "B21": {"name": "GpH7-A5/GpH7-B3 variant Y300_08L/GpL16-k0 (antibody, human IgG1, kappa)", "heavy 1": "not shown", "heavy 2": "not shown", "light": "B1 light", "notes": "as for B3"}, "B22": {"name": "GpH7-A5/GpH7-B3 variant Y300_09D/GpL16-k0 (antibody, human IgG1, kappa)", "heavy 1": "not shown", "heavy 2": "not shown", "light": "B1 light", "notes": "as for B3"}, "B23": {"name": "GpH7-A5/GpH7-B3 variant Y300_10E/GpL16-k0 (antibody, human IgG1, kappa)", "heavy 1": "not shown", "heavy 2": "not shown", "light": "B1 light", "notes": "as for B3"}, "B24": {"name": "GpH7-A5/GpH7-B3 variant Y300_11K/GpL16-k0 (antibody, human IgG1, kappa)", "heavy 1": "not shown", "heavy 2": "not shown", "light": "B1 light", "notes": "as for B3"}, "B25": {"name": "GpH7-A5/GpH7-B3 variant Y300_13S/GpL16-k0 (antibody, human IgG1, kappa)", "heavy 1": "not shown", "heavy 2": "not shown", "light": "B1 light", "notes": "as for B3"}, "B26": {"name": "GpH7-A5/GpH7-B3 variant Y300_14T/GpL16-k0 (antibody, human IgG1, kappa)", "heavy 1": "not shown", "heavy 2": "not shown", "light": "B1 light", "notes": "as for B3"}, "B27": {"name": "GpH7-A5/GpH7-B3 variant Y300_19Q/GpL16-k0 (antibody, human IgG1, kappa)", "heavy 1": "not shown", "heavy 2": "not shown", "light": "B1 light", "notes": "as for B3"}}, "data": [{"biological_target": "T1, FcγRIa (human, UniProt P12314 16-292)", "T1 construct": "extracellular domain; also called FcgRI; CD64; not shown: C-terminal His tag", "T1 sequence (P12314 16-292)": "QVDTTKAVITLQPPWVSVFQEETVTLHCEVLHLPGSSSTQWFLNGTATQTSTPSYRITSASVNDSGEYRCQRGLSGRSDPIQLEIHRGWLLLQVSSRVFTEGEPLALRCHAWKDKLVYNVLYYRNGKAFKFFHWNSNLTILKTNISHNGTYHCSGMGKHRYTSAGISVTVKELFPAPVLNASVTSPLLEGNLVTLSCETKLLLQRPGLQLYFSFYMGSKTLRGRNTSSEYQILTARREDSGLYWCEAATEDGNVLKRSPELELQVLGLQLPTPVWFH", "experiment": "SPR (Biacore), antibody captured on antigen peptide chip, FcγRIa as analyte; relative binding amount", "method": "Analysis of interaction between objective antibody and the FcγR was carried out using Biacore T100 (GE Healthcare). HBS-EP+ (GE Healthcare) was used as the running buffer, and the measurement temperature was set to 25° C. Chips produced by immobilizing the antigen peptide by the amine coupling method to a Series S Sencor Chip CM5 (GE Healthcare), or alternatively, chips produced by allowing preliminarily biotinylated antigen peptides to interact with and immobilize onto a Series S Sensor Chip SA (certified) (GE Healthcare) were used. Antibodies of interest were captured onto an antigen peptide-immobilized chip, and allowed to interact to each FcγR diluted with running buffer. To regenerate and repeatedly use the chip, the antibodies captured on the chip were washed off by reacting 10 mM glycine-HCl, pH 1.5.", "values": [{"binder": "B1", "Ho/Con_1a": "110 % of control (GpH7-B3/GpL16-k0 = 100)"}, {"binder": "B2", "Ho/Con_1a": "110 % of control (GpH7-B3/GpL16-k0 = 100)"}, {"binder": "B3", "He/Con_1a": "116 % of control (GpH7-A5/GpH7-B3/GpL16-k0 = 100)"}, {"binder": "B4", "He/Con_1a": "106 % of control (GpH7-A5/GpH7-B3/GpL16-k0 = 100)"}, {"binder": "B5", "He/Con_1a": "106 % of control (GpH7-A5/GpH7-B3/GpL16-k0 = 100)"}, {"binder": "B6", "He/Con_1a": "105 % of control (GpH7-A5/GpH7-B3/GpL16-k0 = 100)"}, {"binder": "B7", "He/Con_1a": "106 % of control (GpH7-A5/GpH7-B3/GpL16-k0 = 100)"}, {"binder": "B8", "He/Con_1a": "104 % of control (GpH7-A5/GpH7-B3/GpL16-k0 = 100)"}, {"binder": "B9", "He/Con_1a": "106 % of control (GpH7-A5/GpH7-B3/GpL16-k0 = 100)"}, {"binder": "B10", "He/Con_1a": "105 % of control (GpH7-A5/GpH7-B3/GpL16-k0 = 100)"}, {"binder": "B11", "He/Con_1a": "106 % of control (GpH7-A5/GpH7-B3/GpL16-k0 = 100)"}, {"binder": "B12", "He/Con_1a": "105 % of control (GpH7-A5/GpH7-B3/GpL16-k0 = 100)"}, {"binder": "B13", "He/Con_1a": "105 % of control (GpH7-A5/GpH7-B3/GpL16-k0 = 100)"}, {"binder": "B14", "He/Con_1a": "106 % of control (GpH7-A5/GpH7-B3/GpL16-k0 = 100)"}, {"binder": "B15", "He/Con_1a": "106 % of control (GpH7-A5/GpH7-B3/GpL16-k0 = 100)"}, {"binder": "B16", "He/Con_1a": "112 % of control (GpH7-A5/GpH7-B3/GpL16-k0 = 100)"}, {"binder": "B17", "He/Con_1a": "111 % of control (GpH7-A5/GpH7-B3/GpL16-k0 = 100)"}, {"binder": "B18", "He/Con_1a": "112 % of control (GpH7-A5/GpH7-B3/GpL16-k0 = 100)"}, {"binder": "B19", "He/Con_1a": "117 % of control (GpH7-A5/GpH7-B3/GpL16-k0 = 100)"}, {"binder": "B20", "He/Con_1a": "112 % of control (GpH7-A5/GpH7-B3/GpL16-k0 = 100)"}, {"binder": "B21", "He/Con_1a": "113 % of control (GpH7-A5/GpH7-B3/GpL16-k0 = 100)"}, {"binder": "B22", "He/Con_1a": "112 % of control (GpH7-A5/GpH7-B3/GpL16-k0 = 100)"}, {"binder": "B23", "He/Con_1a": "114 % of control (GpH7-A5/GpH7-B3/GpL16-k0 = 100)"}, {"binder": "B24", "He/Con_1a": "107 % of control (GpH7-A5/GpH7-B3/GpL16-k0 = 100)"}, {"binder": "B25", "He/Con_1a": "111 % of control (GpH7-A5/GpH7-B3/GpL16-k0 = 100)"}, {"binder": "B26", "He/Con_1a": "112 % of control (GpH7-A5/GpH7-B3/GpL16-k0 = 100)"}, {"binder": "B27", "He/Con_1a": "112 % of control (GpH7-A5/GpH7-B3/GpL16-k0 = 100)"}]}]}
